Numbering of substitutions follows the chain as printed.
What was measured:
Experiment in all cases: filter binding; 10 mM Mg2+, no ATP; better than wild-type; 25 mM Hepes-NaOH pH 7.5, 2 mM DTT, 10 mM MgCl2, 100 ug/ml BSA, 50 fmol 32P-DNA in 20 ul, 10/30/90 nM MCM monomer (25 nM for the ATP test), 60 C, 10 min; nitrocellulose filter washed with 20 mM Tris-HCl pH 7.5
Conditions in all cases: protein: recombinant; tags: C-terminal His6; chain copies: 6; label: 32P (T4 PNK, 5' end)
MCM PG210,211GA = target: T1, MCM PG210,211GA (Methanothermobacter thermautotrophicus, UniProt O27798 1-666, P210G;G211A)
T1 sequence: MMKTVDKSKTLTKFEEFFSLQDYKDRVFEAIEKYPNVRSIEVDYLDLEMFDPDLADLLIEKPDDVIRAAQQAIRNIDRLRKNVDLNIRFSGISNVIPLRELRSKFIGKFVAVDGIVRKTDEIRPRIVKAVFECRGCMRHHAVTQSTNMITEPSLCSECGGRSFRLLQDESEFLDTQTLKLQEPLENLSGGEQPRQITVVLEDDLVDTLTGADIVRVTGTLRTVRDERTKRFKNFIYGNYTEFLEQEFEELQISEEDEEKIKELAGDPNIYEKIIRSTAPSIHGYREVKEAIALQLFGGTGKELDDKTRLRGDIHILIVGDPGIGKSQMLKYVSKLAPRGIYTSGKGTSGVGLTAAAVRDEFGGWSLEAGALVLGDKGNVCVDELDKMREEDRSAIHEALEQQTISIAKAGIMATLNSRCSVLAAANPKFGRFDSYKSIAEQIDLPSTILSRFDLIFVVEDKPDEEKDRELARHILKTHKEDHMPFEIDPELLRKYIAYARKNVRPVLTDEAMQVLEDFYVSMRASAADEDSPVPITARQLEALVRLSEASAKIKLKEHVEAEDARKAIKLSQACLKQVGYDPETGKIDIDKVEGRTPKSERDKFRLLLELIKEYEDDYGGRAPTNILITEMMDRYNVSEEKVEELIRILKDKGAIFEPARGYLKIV

MCM G211A = target: T2, MCM G211A (Methanothermobacter thermautotrophicus, UniProt O27798 1-666, G211A)
T2 sequence: T1 sequence with G210P

MCM P210G = target: T3, MCM P210G (Methanothermobacter thermautotrophicus, UniProt O27798 1-666, P210G)
T3 sequence: T1 sequence with A211G

Measured: binding result

GCAGATAACAGTTGTCCTGGAGAACGACCTGGTTGACACCCTCACACCC (ssDNA) [49-mer ssDNA]
binds: all assays above

Reference: PMC2997501, “Different Residues on the Surface of the Methanothermobacter thermautotrophicus MCM Helicase Interact with Single- and Double-Stranded DNA” (Archaea, 2010)
